Experimental data taken from a protein production outcome set (Wang et al. 2014).

Assay: label from the status in PepcDB records

Sequence	protein production
ADELVMSNLHSKENYDKYSEPRGYPKGERSLNFEELKDWGPKNVIKMSTPAVNKMPHSFANLPLRFGRNVQEERSAGATANLPLRSGRNMEVSLVRRVPNLPQRFGRTTTAKSVCRMLSDLCQGSMHSPCANDLFYSMTCQHQEIQNPDQKQSRRLLFKKIDDAELKQEK	failed
GTAYWKNPDQFTAFNTGLHALLREKSYNFFLLGEPRADIYGDNPIGGEASQGMERLPFNTINKENVGISNYGDMYKIINQINQMIAKTTETTILTEATQNYYLGEAYGMRAYLYFHLLRSWGDVVLYLDYTEGQNLDLSNITKGVSPATEVMEQIKKDIQASENAFGSDYSFKLGRHFWSAAATQMLKGEAYLWSGRQMNGGNSDYTIAKNAFENVKKADVGLVTSSFKDIFSFENKKNKEMIFTIHNGKDEYEMWGGYYRMRLIPAQDKMVKIYCDENGNSFVGTPDAQLNGLTQLQVRREFYFKGFRNNDTRWTTSLKAVYKKDAQGVVSYFGPITYKFQGTMLEGGSTRSFLDDFPIYRYADCLLQLAMAKVLLGEDPTEEINAVRERAYGSKYFNEHKAEIAYPNDNDPEFYTDNKWMKPDNAGALEAILKERLREFMFEGKRWYDIRLLGWDYVHQYSSAEQSRLLWPIDAGTLTNNSALKQTPGYE	not failed
KGSQVKLEVISDEKGAKPRTITLTREQIRLEDRAVKLTEKVINGDKIAILDIPSFYVGLTNDVKTQLQKVAKDNVSALVIDLRGNGGGALTEAIALSGLFIPSGPVVQVRDNNGRVRQDYDRDDVVYYKGPLVVIVNRFSASASEIFAAAMQDYGRALIVGEQTFGKGTVQQYRSLTRVYDQMLSPDWPSLGSVQYTIQKFYRINGGSTQLKGVTPDLLLPSFDNSEMGESNEDNALPW	failed
MVSEMLSEAGHSVSYLKGGMKAWSEHLEPVKVGDLKDGGEMYQFVRIGKGCLSYMVISNGEAAIIDATRMVNFFIDFAKGKGATITHVFDTHLHADHISGGRVIAEKTKATYWLPPKDAEEVEFDYQPLEEGNDIIIGNTTIKIQPIYSPGHTIGSTSFIVDDQYLLSGDILFIDSIGRPDLAGMAEDWVGDLRKTLYSRYKALSKDLIVLPAHFMIIDELNENGSVGKQLSTLFSENHGLNIADETEFRHLVTDHLPPQPNAYQEIRETNMGKISPDEEKQREMEIGPNRCAIRLEHHHHHH	failed
MTSCTIIDATDRSIRQTLGETSTLARLIWVDAGLASPPLCSGLARCGRCRVRITEAAPAPHEDDREFFSAEDISAGWRLACRHAPAHGMVVHVPLEHHHHHH	not failed
MAAFVRDYLEASVENETDGGRMRWYPWHSAEYRFTHIMNVVDIAERIAEATSANVDVVRVAALFHDIAKLEAEQDAHAEEGARIARKYLETHGQFPPSFVDQVAEAVSRHSYQGDLMDLPLEARCLVEADLLDKAGANGAALMLLRMGYEARTHVDAAEMIQRVLDRGEDAAERVESDAASSIAHRRLKRVRWLHDWLTSEVPAMNDTGY	failed
MKLSIVIVNYRVPYFLEQCLLSVRKSAQGIDTEVWVVDNNSGDGSVEYLQSRFPEVHFVANEENVGFSRANNQAIRLSKGQYVLLLNPDTLIGESTLRTVVDFMDSKPNAGGLGVKMLNGHGRFLPESKRGFPSPWVSFCKLSGLNRLFPHSSRFNRYHLSYLSRDEVHKVEVLSGAFMLMRREALDKVGLLDERFFMYGEDIDLSYRLILGGYDNYYYPTPILHYKGESSSVSDVKYLRSFYGAMGLFFDKYYRNRMNPLLHGLINVVIKARTALALMLRSLRKVPAAEKPAKIFYWHPSEGEAAISAYHDRSHILINTDEVTCDRLLLTMEKLADRKHTFHLTNDTTKRVISP	failed
PLKEQKVINTANITTNSKLDLAEYENGLMNIAKEQFDTENHVLQLNQYIPEKLVDELVAKVKAPVLTNIIEQDYFGKQNSNELSLSGVMIGLAMSSSVSNEEAMSKGTEVANQLIEAIHKNDKYNKSPITFAIFKQESTSSLKNGTYIASATVQKNDTNIGNWNAIEEKAYSYPSDEFTQAHGEDNTKIDDFAKEMKGFSPGDFIPVNAKVSYKKNQMDTLNMNIVIKYNGKTELMALTQLAAQIMLEQLPKDAKVQLQIKSENKIEAIVIKEKNSDKPFVSFL	not failed
MEFMHDKSAEDEGITLVSEPMDTTVATHESRRNAAAFSSVVAPTTDDEIVHERFDPAFEVQADFYGFDENAPPLPLPEEYYSELPLPEEDRQYIPPPPALIPVEPETTFRRPRTRQQRRTESQLVQPVSVATYEDSKASLRVLMQQLPPPGDNVVARIPKRTHRVVRTLPPTFGTTKREENFYGFSKTAISWRKTRASWRHFCLLING	failed
MGSRTHARKDASSEALQAPRLRTLLLTDLCDSTALVERIGDNAAAALFREHDRLVVKLQQHWRGRLIDRSDGLLLLFDRPIDGLGFALDYARGLKTMGDAHALTLCARQGLHVGEVLTWRNSDEAISIGAKPLEVEGLAKPTAARLMSMARPGQILLSAVAESLTHRAARELGNRADRLLWKSHGRWRFKGMPTPMEIYEVGEVGLTPLRMPKNSAKAWRDVPLWRRPAALVAEVGVVLAVGIAAWFFIRPQPAIAFASRDWVVVGDVRNLTGNTVLDGALEQALRISLEQSRYVNVLSDMKVRDTVTRMKRDPNTIVLDRSVASEVALRDGASAVLLPTVAEVGGKLRFSVELVDPRTQTTVYSEFVQGDGLPSALSSVDQVTRKLRQGLGEMVASIDKNSVPLPAVTTSSLDALRAYALGVEATAKGRWREGLELFDRAVGIDPTFALAYLGAARIKVAVSDRNGALPYLDNAVRFRQRLPARDQLYLDAWIAELRAVDTALPLWRTLASLYPDNFAGAANTSWHLFVANRFADALPYAQAADVVQDPLRSIASDRIGRILMAQGKVEAALQRFENSSDGDRAGPLRRQADALAVLGRYAEEQRTLDRIVDNGYANDDVVPLIDRTSIALDQANWANANAAVAQALERSKHTDDFSYRQFLVIGATTAAITGETASVGPGMSSTFEALVGAIKANGPAEPNLQDDAAMVLSLVSQAQRNGDDQFTARALSAIKPALAHETPVLADLRAIVEAQHLALSGDRVAAIARLPPGPDDLLQMRVTLYTLLHDSGRHAEALQQARWLSLQRGRAYIEANASQTLQPLNVAHTRLARLWTAESLYALGRTQEAREQAQAFVRAWPASHLPAYLRSRVERILSDSKAKITV	failed
MAKHAILVIDMLNDFVGEKAPLRCPGGETIIPDLQKIFEWVRGREGDDIHLVHIQEAHRKNDADFRVRPLHAVKGTWGSDFIPELYPQEDEYIVQKRRHSGFAHTDLDLYLKEEGIDTVVLTGVWTNVCVRSTATDALANAYKVITLSDGTASKTEEMHEYGLNDLSIFTKVMTVDQYIQAWENDEDPWVGGGDAQNKVK	not failed
MKGIMVQGTASDVGKSLICTALCRIFARRGYKVTPFKSQNMSNNSYITVEGLEIGRAQGIQAEAAMEEASVYMNPILLKPRNDREAEIVCFGQAVDTVSGVKYRDGFYKRGLEAIKQALATLSQSFDMVVIEGAGSPVEVNLNDRELVNMKVAELADVPVILVADIERGGVFASLYGTLELLQPNERKRVVGIIVNKFRGDPELFSSGVQWIEQHLGVPVLGVLPHLPGVRIEGEDSLSKGQVTSVLPRDQSIDIAVLDLPYLSNYTDLEPFRYEEDVAIRFVSSVDALGRPDAIILPGTKSTFHDLQILKEKGFKERLHEYVTTDGTVVAICGGFQMLGHRLIDVAGSDTGIKGATIDGLDLAPVETRFAEKKKTVRSLGQLLHPFGTAKDIYGFEIHLGETDIVDPSIPAFLRVGNHTDGVYLHEGRLIGTYFHHLFFNDDFRSGWLNTLRRKKGLRERPTVELEKCRRASYDQLADEVERVLHVDSLLEKMERWGETSLEHHHHHH	not failed
MVKVIFFDLDDTLVDTSKLAEIARKNAIENMIRHGLPVDFETAYSELIELIKEYGSNFPYHFDYLLRRLDLPYNPKWISAGVIAYHNTKFAYLREVPGARKVLIRLKELGYELGIITDGNPVKQWEKILRLELDDFFEHVIISDFEGVKKPHPKIFKKALKAFNVKPEEALMVGDRLYSDIYGAKRVGMKTVWFRYGKHSERELEYRKYADYEIDNLESLLEVLARESSSNKKVHPPRQQI	not failed
MLLEVIPLTLPLLLTLLPIVVILVMLLVFRKAADVSGIIGWLAISVVAWLGFQTAPEVILRSTAAGFIRSFSVSLIVATSLLQMALMEKTGALRRITIFIRTIASDNRAVQIMMINIGFGTLMVAVGATPVSILPPILLAMGYSTYVAIALPAIGYDSLCTYALLGAPIVVFVDIANSFLGKGNEIALHQAGMVFYMFLPVVSTMIGFCMLWIVGKWQAIRDGWLPCLLTGAVIGVVARFTNQYDNLVVLTGVLCGIAVIAAMAAYLVVTGGKVIDRSLLSAEEREFAAAMPLWRAFMPWTLLVILILVLNVPQDLFSWLYRTMKLPIAGLTADGKPLDTRALWQAYTWILVSTILAVPFLKPTGEQLRETVRTWVRRAPRPVFAAAVFFAIGEIMNMAGYDMAAGRFVVPSMVTVLADSSALAFQGMYGEVVAFIGLFGGFITGSEASTIAMFAKYTMTTAKNLDMPLSGLIIVTAGLAFGGGLASVISPAKLQNAAAAIDRIGEEGKVIRIAFVFALLLTLVTSLFVVVLLTVNGMGRVS	failed
MNLDETLLNRIKVIALLNLKLVRKLVIFIMVNCLVLSGIPAALCMSSAPVVYVTGDGSGDFNCDGTDDHVQINQALKFVAENSAYTTVYLKGPFTYVIDDTLLIGSNTILEGDSSAKIKLVNNANWESRKPMIKERSTGISGITIRGFTIDGNREGNTNVVSGKGYYNLIHLSSCQNIKVYDMYLTNNHGDGLKTDKCTNVEFYDNEIYLLGHDGLYASGCSDVEAYGNTITCRTNSGLRLYNTNKASFHDNVITSEGSGGAGIEIQKYNTPAMDDIEVYNNVIYKTALAGIWIFGSGSYSASTANVHVHHNQIYDTGTKTSNSIIGGIVSNGFSGLIENNVIDGAYGAGIVQKTVYSPAPSGSGFLLTVRNNILSNSRSSSGGGSGYGINNELSGTHSFVLQNNCYYGSAGGDSRNVQLSASDIKVDPQFADRSSHDYHLKSIAGRWNGKSWITDSASSPCIDAGYIASDYSKEPQDNGGRINIGTYGNTKYASKSGTTEVVTNQAPVLNSIQDATVEIGESLTFTVSASDAEEDSLSYSASGLPTGATFDSESGIFAWTPAVGQEGTYSVTFVVSDGELTDSATAIINVSKQEDTSKQEDPSTITGEVYDNRLREASPDIVYQSSPFIDVGAMSIGSYRDIMWFDLSVYADYSEVNSATLSLYWYYPAGKARPEDTVIEIYRPADSWNPDYVSWNKKDKRVAWNNAGGDWYDRNGVLQGSTPYATITLEGSDLPDNRYYELDVTDLVNEYISSKYENTGFLIKARTENNNYIAFYSNDCGNENQKPKLTVTEEASVSPIDVQPIDVTVSGAKDNRLREASAENVYQSSAYVDVGALSGVGRYRDMMQFDLSEYADYSEVNSATLFLYWYYPAGKARPEDTVIEIYRPADSWNPDYVSWNKKDKRVAWNNAGGDWYDRNGVLQGSTPYATITLEGSDLPDNRYYELDVTDLVNEYISGKYENTGFLIKARTENNNYIAFYSSEAGGENQRPKLNLQLKQ	failed
MRLVEIGRFGAPYALKGGLRFRGEPVVLHLERVYVEGHGWRAIEDLYRVGEELVVHLAGVTDRTLAEALVGLRVYAEVADLPPLEEGRYYYFALIGLPVYVEGRQVGEVVDILDAGAQDVLIIRGVGERLRDRAERLVPLQAPYVRVEEGGIHVDPIPGLFDLEHHHHHH	failed
MKIGRYEVCGLLGRGGMGVVYKVRQPVTGRVAALKLLKPADILVDLAGMDALREGFLHEATVMASLDHPHVAAVWDVDEAGGLPFFVMEYYCLNLGLLMGESYRVEAPTRRLPLERAVRYARQTLEALRRMHHEGIVHRDVKPFNIMVTGDDAVKLIDFGLSRLRGETRLSPRGVKVGSPYYAPPEQESAPDAVDARADLYPVGVMLFRMLTGVLPTDEERMKDGRIPRASALSDELDEGWDAFFDTAMAADPARRFPDAASMLAALARCEAAWRKQVEATCRLIPEQAAGPGDASDMRHDAGHESVQAGQTDETGQAGQAGQAGQAVTCEGAPAASGGVRCRPVKVGVHEARATFALDALWRPASAARQGLEARDDGTVSHAATGLQWETGGCDFPLTRDEAEAYVEARNALRFAGHDDWRLPTVDELLTLVDAGVTVGDPCVASVFAPLPDPLWTSDRKSYMASWFVSAAMGFVGWQDDTCRFGVRLVRGGSARCRE	failed
